Experimental data published in a protein production outcome set (Wang et al. 2014).

Assay: label from the status in PepcDB records
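Note: failed if final PepcDB status was selected cloned or expressed and not failed if soluble or beyond.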

| Sequence | protein production |
| --- | --- |
| MVRLEDYGTWDEALKRLEASRKALLALLREADPAWLSAPLREGAWTPLMVAEHVALVEDSTARVLRRLRRLAAGENLPPVPVKPGEFKDGKPQAPEGVRPKGGLSLEEVLALLDRARAFLLEEVAKADPQNPATFPHPFFGELNPLGWLRAAAYHEAHHLKALQASLPR | not failed |
| MTDNNQNNENHENSSENSKADEMRAGAFERFTNRKKRFRENAQKNAEYSNHEASSHHKKEHRPNKKPNNHHKQKHAKTRNYAQEELDSNKVEGVTEILHVNERGTLGFHKELKKGVEANNKIQVEHLNPHYKMNLNSKASVKITPLGGLGEIGGNMMVIETPKSAIVIDAGMSFPKEGLFGVDILIPDFSYLHQIKDKIAGIIITHAHEDHIGATPYLFKELQFPLYGTPLSLGLIGSKFDEHGLKKYRSYFKIVEKRCPISVGEFIIEWIHITHSIIDSSALAIQTKAGTIIHTGDFKIDHTPVDNLPTDLYRLAHYGEKGVMLLLSDSTNSHKSGTTPSESTIAPAFDTLFKEAQGRVIMSTFSSNIHRVYQAIQYGIKYNRKIAVIGRSMEKNLDIARELGYIHLPYQSFIEANEVAKYPDNEILIVTTGSQGETMSALYRMATDEHRHISIKPNDLVIISAKAIPGNEASVSAVLNFLIKKEAKVAYQEFDNIHVSGHAAQEEQKLMLRLIKPKFFLPVHGEYNHVARHKQTAISCGVPEKNIYLMEDGDQVEVGPAFIKKVGTIKSGKSYVDNQSNLSIDTSIVQQREEVASAGVFVATIFVNKNKQALLESSQFSSLGLVGFKDEKPLIKEIQGGLEVLLKSSNAEILNNPKKLEDHTRNFIRKALFKKFRKYPAIICHAHSF | failed |
| MSSFFTGKDDSAVEELLSQAKDQYVLEQVAKINCSGFTDDTALPTNPETRLRRLKSLPVSRTDSVSSSPKKLLSHSNSMASHPEKKYRGNVSSVSSFSIQVGKSCPLDSSVEETQIFSKTKRNQSVKSRGGLGESSGSKRIGSSSSRFSCGNVSSTGSSSSRFSREGNISTATKTLKLPC | not failed |
| RKTEKVVNNGIPWFDDRGEIVNAHGACIVEENGRYYLFGEYKSDKSNAFPGFSCYSSDDLVNWKFERVVLPMQSSGILGPDRVGERVKVMKCPSTGEYVMYMHADDMNYKDPHIGYATCSTIAGEYKLHGPLLYEGKPIRRWDMGTYQDTDGTGYLLLHGGIVYRLSKDYRTAEEKVVSGVGGSHGESPAMFKKDGTYFFLFSNLTSWEKNDNFYFTAPSVKGPWTRQGLFAPEGSLTYNSQTTFVFPLKCGEDTIPMFMGDRWSYPHQASAATYVWMPMQVDGTKLSIPEYWPSWDVDKLKPVNPLRKGKTVDLKKITFSKEADWKVEEGRISSNVKGSTLSIPFTGSCVAVMGETNCHSGYARMNILDKKGEKIYSSLVDFYSKANDHATRFKTPQLAEGEYTLVIEVTGISPTWTDKTKRIYGSDDCFVTITDIVKL | not failed |
| MQTVQALLTAAKVDGAKSPYDTIHIKVLYPAKNTDSNLEKSWGMLPIDTAQAPLPVMIFFNGFNCDAQKYQWLGIELAQTGLVVVMFNWVGESLPGLVSFTPGFEIEKRKREFYGTAPTASALPAILTTLAQLQREGILAGTLDLEKIILGGHSEGGRVAMENANPNFFPQVVASFAYGSHTAGAVMLGYKPNTILPLPDTLPRLVIGGTHDGVIASSSSHFGLNTKDATTPVIRTFQEAIMGGHENSYLLILRGANHFSIVDIVDSTLALPFKDIPATQPQEHFRLLLATIIHLFIDAHVRHQPEAFQKLEQL | failed |
| MTEARAGLFARRRYLPALAVLYAALWLALAIEPHDRSDWLLENALVLGFGVALYATRRWFVFSRVSYTLIFLYLCLHAVGAHYTYSLVPYDAWWQRLTGHSLDQLLGWERNQFDRLVHFSYGLLLAYPIREIFLRVVDVRGFWGYLLPLDVALSTSALYELIEWGAAEFFGGELGVAYLGTQGDIWDAQKDMALAGLGALIAMLLTALFNRGARRDPARDWVDRMKPGHT | failed |
| MIVSITLLILAVGVFAIILARFIRIPYTLLLVVLGFFLSLFTVAFGIDTGVRASNFQDLMLFILLPVLIFEAAFALNSKLLFKYLPNVLTLATLGLIISTLVIAVFLYFGIAHSGFPFIAALLTGVVISATDPVAVVGQLKALKAPDDLNVLIEGESLFNDATAIVLFSIILSIALGQSEPDLTSAIITFSKVFFGGIIVGSVFGYIAALLVKIIDTSVPHMVVITLFLAYGTFYIAEHLFHVSGIVAVMFAALLFKKSAQDQLKDVHTGLHNIWESLGFIANIFVFVLLGLVVSLNMFTQMWLAIILAIVGAFIARVIAVYCSVWLNQVIVGQPINRKYPPIMIWGGLRGAVTIALVLSLPTELPYWWTIQSIGFGIVLFTLIVQATTTPLLVKKLNI | failed |
| MAELIHSTIGRLLEQTADAYPDRDAVVYPDRNIRYTYAQFDSLCRQTAKGLMRMGIGKGDHVAIWASNISEWLAVQFATAKIGAVLVTVNTNYQAHELDYLLKQSDAAALIIMDSYRGTSYPDIVNSLIPELQEAKPGQLKSERYPFLKTLIYIGNKRLSGMYHWDDTEILAKTVTDAELEERMNSLDKDNVINMQYTSGTTGFPKGVMLTHFNVINNAANIAECMALTSQDRMCIPVPFFHCFGCVLGVLACVSVGAAMIPVQEFDPVTVLKTVEKEKCTVLHGVPTMFIAELHHPDFDAYDLSTLRTGIMAGSPCPSEVMKAVIERMGMKDITIAYGQTEASPVITQTRANDSFIRRVETTGRALPHTEVKIVEPGTCQEVQRGMQGELCTRGYHVMKGYYKDKDATRKAINHDGWLFTGDLAVMDEDGYCRITGRLKDMLIRGGENIYPREIEEFLYQHPAVLDVQVVGVPDAKFGEEAAAWIKLKDGKSVSPDELKAYCKGKIARHKIPRYVIFTDDYPMTASGKIQKY | not failed |
| NLKVKGARDVFEYMKGRIPDETKEHLFVLFLSTKNQILRHETITIGTLTASLIHPREIFKAAIRESAHSIILVHNHPSGDVQPSNADKQVTSILKKAGDLLQIELLDHVIVGNNDWFSFRDHALL | not failed |
| MAQYPEQLNGIFQALADPTRRAVLGRLSRGPATVSELAKPFDMALPSFMKHIHFLEDSGWIRTHKQGRVRTCAIEKEPFTAVEAWLAEQQELWESRTDRLEQFVTEHTVTAHAKATPQ | not failed |
| MAIASSSPSSSSNVSVIPTGPQVFISFRGKELRKGFISFLVPALKKKNINVFIDEHEVRGKDLISLFRRIGESKIALVIFSEGYTESKWCLDELVQIKKCVDQKKIIAIPIFYKLDPAVVKGLKGKFGDKFRDLIERYHHEPERYQKWTEALTSVSRTFALCLPEHRLRFFNHKNCLFLVAQDTNDKSEKDFIRSIIKEVKKALSNISRERNGDREEIDDCFVVSERKLTTDMYDTPE | failed |
| MSEENRAVVSRMTEEDVRQLIKRKDDIEEQIKAYYDMLESQAGVGMDGPLVDVEGFPRADVDLYKVRTARHSISCLQNDHKAIMVEIEEALHKLHATARVTHEQDDTQMESSGQTVETPPPFALVDAVTHGSPAAQAGLHVGDQIMEFGSVNTQNFRNLRDIASVVQHSEGKSLRVGVFRNGQEVHLNLTPQQWSGRGLLGCNIVPLHR | failed |
| ANIYTFDFDEIESQEDFYRDFSQTFGLAKDKVRDLDSLWDVLMNDVLPLPLEIEFVHLGEKTRRRFGALILLFDEAEEELEGHLRFNVRH | not failed |
| MRAFLRVVETGNFTRASASLNMPKATVTNLIQGLEAHLRTKLLNRTTRRVLVTPDGALYYERAARLLSDLDELDGSLSTAQSLPKGRLRVETASAFANLVIIPALPEFHKKYPDIQIDLGVSDRTIDYLAENVDCAIRAGTLTDQSLIARRITEMKFVACASRDFLERHPVPQHPSDLEKNCYVVGYFLPKTGQQMPFHFRRGNEEIEVSGRYTVAANESTTYLAAARAGLGVIQAPLFMVREDLRNGTMVPVLPDWQVEPMPIYLVYPPNRHLSSRLRVFADWVVKVMAQSQNGE | not failed |
| MNKRSIFSNWFITARPKTLPLALASIMVGSALANWVGQFDWVTNLLAIITTMLLQILSNFANDYGDYVKGSDTQERIGPLRAIQQGNITGEQLRQAVIFLSFLSFISGLVLTIYAYQSLQDLLVFVSLGVVSIIAAISYTVGKKAYGYLGLGDLFVLIFFGFVAVIGSFYLQAHSIPIIILLPAFACGLLSVAVLNINNLRDINQDRQAGKNTLIVRIGSDNGRIYHMLLLTLAVICYLIFAIIEGNHWYNYLFLLAVPLLVQHALFVYRYQEPIELRPMLGKMAALALLTNLLFSIGIMLG | failed |
